Laboratory results published in patent US10881709B2, “Immune system modulators and compositions” (Canimguide Therapeutics AB, priority 2015, dated 2021).

The substances below were run against P3028 (SEQ ID NO: 185) (Homo sapiens, UniProt P02768) (assay: PEPSCAN ELISA (rampo assay): binding of His-tagged P3028 to immobilised peptides). Settings: truncations, deletions, glycine substitutions.
Protocol: Based on the structure of peptide P28R, additional peptides were identified that bind to P3028. The additional binders included deletions, truncations, and or amino acid substitutions of peptide P28R. Binding of peptides to P3028 was assayed using PEPSCAN technology. PEPSCAN technology, or “rampo” assays are biochemical binding assays, details of which are provided below:
A peptide microarray screening technology was used to measure binding of P28R (SEQ ID NO: 2) and variants of P28R to P3028 (SEQ ID NO: 185). In this technology libraries of synthetic peptides are synthesized and covalently linked onto polypropylene microarray chips. The linear peptides were synthesized onto credit-card format polypropylene cards (455 peptide formats/card) as described by (Timmerman et al., 2004) using standard Fmoc-chemistry using hexamethylenediamine (HMDA) as linker and deprotection using trifluoroacetic acid (TFA) with scavengers.
The binding of His-tagged P3028 to each peptide on the card was tested in an ELISA assay. The 455-well credit card format polypropylene cards containing the covalently linked peptides were incubated with His-tagged P3028 peptide (PGE73) solution consisting of 0.5 μg/mL diluted in blocking solution (4% horse serum, 5% ovalbumin (w/v) in PBS/1% Tween). After washing, the peptides were incubated with a monoclonal mouse anti-His-tag antibody (Novagen®, 70796-3, diluted 1/1000 in the incubation buffer) and subsequently after washing with a rabbit-anti-mouse antibody peroxidase (Rampo) conjugate (Southern Biotech®, 6175-05, diluted 1/1000), for one hour at 25° C. After washing, the peroxidase substrate 2,2′-azine-di-3-ethylbenzthiazoline sulfonate (ABTS) and 2 μL of 3% H2O2 were added. The binding capacity of the mAb was measured as a color development at 405 nm (optical density, OD405). The color development was quantified with a charge-coupled device (CCD)—camera and an image processing system.
The OD405-values obtained by a CCD-camera was considered as raw data values (“rampo values,” “rampo units,” or “rampo scores”). The values mostly ranged from 0 to 3000, a log scale similar to 1 to 3 of a standard 96-well plate ELISA-reader. First the CCD-camera made a picture of the card before peroxidase coloring and then again a picture after the peroxidase coloring. […] These values were copied into an excel file and labeled as a raw data file. One follow-up manipulation was allowed. Sometimes a well can contain an air-bubble resulting in a false-positive value. If manual inspection of the cards detect an air-bubble the value are set to 0 for that well.
A library of peptides tested for binding to peptide P3028 included all substitutions for each position of the peptide P28R (SEQ ID NO: 2) (i.e., 19 substitutions for each position). The results of the binding experiments are shown in FIGS. 27, 28, 29 and 30 and Table 5.1. […] P28R had rampo values ranging between 262 and 460 with a mean value of 370. […] In addition, M and S in position 7 (SEQ ID NOs: 9 and 10, respectively), and Q and M in position 11 (SEQ ID NOs: 15 and 16, respectively) all have rampo values over 700.
For each position of P28R, the rampo scores of the group of 19 different peptides containing an L-amino acid substitution were compared to the rampo score of a control sample P28R peptide (SEQ ID NO: 2) for that group. Single-amino acid substitutions having a rampo score greater than or substantially equivalent to P28R were identified. As used herein, a rampo score “substantially equivalent to P28R” is a rampo score that is at least 98% of the rampo score of P28R. Thus, variants of P28R having equivalent or better binding to P3028 were identified.

Row | rampo score / affinity to P3028 compared with P28R | Substance
1 | comparable rampo score | FVKL [SEQ ID NO: 63]
2 | comparable to P28R | KKLDGFFVKLSLFTER [SEQ ID NO: 95]
3 | comparable to P28R | KKLDTFFVGLSLFTER [SEQ ID NO: 98]
4 | comparable to P28R | KKLDTFFVKLGLFTER [SEQ ID NO: 99]
5 | comparable to P28R | KKGDTFFVKLSLFTER [SEQ ID NO: 287]
6 | retained a high affinity | KKLDTFFVKLSLFTE [SEQ ID NO: 34]

Row | Substance | rampo score / affinity to P3028 compared with P28R
7 | KKFFVKLSLFTER [SEQ ID NO: 76] | comparable to, or higher than peptide P28R
8 | KKLDTFGVKLSLFTER [SEQ ID NO: 96] | comparable to P28R
9 | KKLDTFVKLSLFTER [SEQ ID NO: 65] | comparable to, or higher than peptide P28R
10 | KKLTFFVKLSLFTER [SEQ ID NO: 64] | comparable to, or higher than peptide P28R
11 | KKLDTFFVKLSFTER [SEQ ID NO: 68] | comparable to, or higher than peptide P28R

Each substance was assayed on PBMCs (assay: IL-2 induced proliferation of PBMCs, 3H-thymidine incorporation (human ex vivo model)). Settings: PBMCs from healthy control samples, 7 days, 3H-thymidine.
Assay type: cell-based
Protocol: 100 μl of RPMI1640 supplemented with 200 IU/ml penicillin, […] streptomycin, 4 mM L-glutamine (all from Sigma® Chemical Co. MO, US) and 20% heat-inactivated human serum (autologous or from cancer patients) were added to uncoated, HSA or HSA/IgG coated tissue culture microtiter plates. PBMC, isolated from healthy individuals or patients with metastatic renal cell carcinoma, were diluted in RPMI/2% HSA at a concentration of 5×10^5/ml and 100 μl were added to the microtiter wells. Interleukin-2 (IL-2, Proleukin®, Chiron®, NL), at a final concentration of 120 IU/well, was added to some wells. Cells were cultured for 7 days in a humidified, 5% CO2-atmosphere at 37° C. Proliferation was assayed by incorporation of 1.6 μCi/well of [^3H]-thymidine (Amersham® Int., UK) during the last 18 hrs. Mean values of dpm (disintegrations per minute) of triplicates were used for the calculations.
Cultures for IL-2 induced proliferation was set up with PBMC from healthy donors and autologous serum as described above with the exception that PBMC were first pre-incubated for 30 min at room temperature with the indicated albumin peptides at a concentration of 10 μg/ml.
Round-bottomed, 96-well tissue culture plates (Costar®, Corning® Inc. NY, US) were pre-coated with HSA only or HSA and pooled human IgG for intravenous injection (Gammagard®, Baxter AS, DK) as follows; HSA was diluted in RPMI1640 without supplements to a concentration of 10 mg/ml. A mixture of 1 mg/ml IgG in a solution of 9 mg/ml HSA in RPMI (HSA/IgG) was also prepared. 200 μl of HSA or HSA/IgG were then added to each well of the plate. The plates were incubated at 4° C. for 30 minutes after which the wells were washed twice with 200 μl of RPMI1640. The coated plates were used immediately. 100 μl of RPMI1640 supplemented with 200 IU/ml penicillin, […] streptomycin, 4 mM L-glutamine (all from Sigma® Chemical Co. MO, US) and 20% heat-inactivated human serum (autologous) were added to the HSA or HSA/IgG coated tissue culture microtiter wells. PBMC, isolated from healthy individuals, were diluted in RPMI/2% HSA and peptides were added directly to the cell suspension at a concentration of 10 μg/ml. One hundred μl of this cell suspension (5×10^4 lymphocytes) was then added per well providing a final concentration of 5 μg/ml peptide per well. IL-2 (Proleukin®, Chiron®, NL), at a final concentration of 120 IU/well, was added to the wells. Cells were cultured for 7 days in a humidified, 5% CO2-atmosphere at 37° C. Proliferation was assayed by incorporation of 1.6 μCi/well of [^3H]-thymidine (Amersham® Int., UK) during the last 18 hrs. Mean values of dpm (disintegrations per minute) of triplicates were used for the calculations.
The model included PBMCs isolated from venous blood samples from healthy blood donors (control samples) or cancer patients. One hundred pI of culture medium (RPMI 1640 Dutch's modification (Gibco®, InVitrogenAB®, Stockholm, Sweden) supplemented with 200 IV/ml penicillin, 200 ug/ml streptomycin, 4 mM L-glutamine (all from Sigma® Chemical Co. MO, US) and 20% heat-inactivated human serum) were added to roundbottomed, 96-well tissue culture plates (Costar®, Corning® Inc. NY, US). […] Control sample wells without IL-2 was set up in parallel. […]
The effect of different peptides on IL-2 induced proliferation was analyzed in the human ex vivo model, using PBMCs from healthy control samples. […] Proliferation was measured as incorporation of ^3H-thymidine during the final 18 hours. […]

Row | Substance | inhibition of IL-2 induced proliferation
12 | KVPQVSTPTLVEVSR (listed as Homo sapiens) [P3029] | none

These substances were tested on PBMCs from healthy control person (assay: PBMC activation (CD69/CD71, flow cytometry) in RPMI plus 10% human AB serum). Settings: 40 μg/mL, 24 hours, healthy PBMCs.
Assay type: cell-based
Protocol: The activity of peptide P28R (SEQ ID NO: 2) and modifications of P28R was studied in a human ex vivo model using PBMCs in short term cultures, 24 or 48 hours. Effects of P28R and modifications of P28R on PBMCs from a healthy control person were studied. Activation was measured as percentage of cells with enhanced marker CD69 using flow cytometry. PBMCs were incubated with the peptides (40 μg/mL) for 24 hours in RPMI plus 10% human AB serum.
As observed in Example 37, P28R (SEQ ID NO: 2) can stimulate PBMCs from healthy controls in short term cultures when RPMI plus 10% normal human AB serum is used as culture medium. Truncations of P28R were also assessed for their ability to activate PBMCs. PBMCs were incubated with the peptides (40 μg/mL) for 24 hours in RPMI plus 10% human AB serum. PBMC activation was measured as percent cells with enhanced expression of either CD69 (FIG. 42A) or CD71 (FIG. 42B) using flow cytometry. Two experiments were performed for each peptide.
Effects of modified peptides on activation of PBMCs from healthy control person were assessed. Activation was determined as percentage of cells with enhanced marker CD69 or CD71 using flow cytometry. PBMCs were incubated with the peptides (40 μg/mL) for 48 hours in RPMI plus 10% human AB serum.

Row | Substance | PBMC activation, enhanced CD69 or CD71
13 | KKLDTFFPKLSLFTER [SEQ ID NO: 329] | did not activate

Same assay, conditions: 40 μg/mL, 24 hours, healthy control person

Row | Substance | PBMC activation, cells with enhanced CD69
14 | KKLDTFFVDLSLFTER [SEQ ID NO: 569] | did not stimulate
15 | KKLDTFFVKLSLFTFR [SEQ ID NO: 571] | did not stimulate
16 | KSLDTFFVKLSLFTER [SEQ ID NO: 510] | did not stimulate
17 | KKLDTFFVNLSLFTER [SEQ ID NO: 518] | did not stimulate
18 | KKLDTVMVKLQLMTER [compound 30680] | induced activation

Same assay, conditions: 40 μg/mL, 48 hours, healthy control person

Row | Substance | PBMC activation, enhanced CD69 and CD71
19 | RKLDTFFVKLSLFTERRR [compound 32814] | stimulatory effect in short term cultures similar to that of P28R
